# Columns and labels:
# Assay in all cases: crystal structure; VP1 pentamers (His-tag cleaved) at 3-4 mg/mL, hanging drop vapor diffusion at 20°C, 10-18% PEG 3.350, 0.1 M HEPES pH 7.5, 0.1-0.3 M LiCl; self-association of VP1 into a pentamer
# [1] = target: BK polyomavirus VP1 mutant E73Q (VP1 pentamer, residues 30-300) (BK polyomavirus) (UniProt P03088)
# [2] = target: BK polyomavirus VP1 mutant N-Q, K69N E82Q (VP1 pentamer, residues 30-300) (BK polyomavirus) (UniProt P03088)
# [3] = target: BK polyomavirus VP1 mutant VQQ, A72V E73Q E82Q (VP1 pentamer, residues 30-300) (BK polyomavirus) (UniProt P03088)
# [4] = target: BK polyomavirus VP1 mutant E73A (VP1 pentamer, residues 30-300) (BK polyomavirus) (UniProt P03088)
substance,measurement,setting,value
"BK polyomavirus VP1 mutant E73Q (VP1 pentamer, residues 30-300) (from UniProt P03088 30-300) (domain or fragment)",stoichiometry N,[1],5
"BK polyomavirus VP1 mutant N-Q, K69N E82Q (VP1 pentamer, residues 30-300) (from UniProt P03088 30-300) (domain or fragment)",stoichiometry N,[2],5
"BK polyomavirus VP1 mutant VQQ, A72V E73Q E82Q (VP1 pentamer, residues 30-300) (from UniProt P03088 30-300) (domain or fragment)",stoichiometry N,[3],5
"BK polyomavirus VP1 mutant E73A (VP1 pentamer, residues 30-300) (from UniProt P03088 30-300) (domain or fragment)",stoichiometry N,[4],5

# From paper PMC9989821
